We go through 2 molecules from patent US20230312740A1 (VIRTUOSO BINCO, published 2023).

In test [1] the target is T1, Human ICAM1 ECD-Avi (human, UniProt P05362 28-480).
T1 construct: eluted as a monomer; also called hICAM1; recombinant ICAM1
Briefly: SPR (Biacore 8K), antibody captured, monomeric ICAM1 ECD injected.
Description: (§1) Furthermore, binding kinetics measurements of the anti-CD38 and anti-ICAM1 antibodies were not affected by antibody valency in the SPR assays because antibodies were immobilized and challenged with monomeric antigens. SPR was performed on a Biacore 8K instrument (GE Healthcare). Antibodies were captured on Biacore Series S CM5 sensor chips coated with a monoclonal mouse anti-human IgG (Fc) antibody (GE Healthcare human antibody capture kit). Serial 3-fold dilutions of antigen (CD38 ECD or ICAM1 ECD) were injected at a flow rate of 30 µl/min. Each sample was analyzed with 1 min association and 10 min dissociation at room temperature (25° C.). After each injection, the chip was regenerated using 3 M MgCl₂. A 1:1 Langmuir model of simultaneous fitting of kₒₙ and koff was used for kinetics analysis.

For test [2], the target named is T2, ICAM1 on the surface of tumor cells (human, UniProt P05362 28-532).
T2 construct: whole, on cells; also called ICAM1 on DU145 cells; ICAM1 on the surface of Daudi cells
Nature of the test: flow cytometry on Daudi cells; lower end of the range; Daudi cells.
Description: (§2) Surface expression of CD38 and ICAM1 on the transformed cell lines was quantified by flow cytometry. Harvested cells were centrifuged at 2000 rpm for 5 min, resuspended in 10 - 15 ml ice-cold culture medium, and then counted. Then, 3×10⁶ cells were resuspended per ml of blocking buffer (PBS plus 2% FBS). 100 µl of the cell suspension was dispensed into each well of a 96-well plate and incubated at room temperature for 10-20 min. […] While incubating, purified antibodies were diluted to the desired dilution with blocking buffer. After a 10-20 minutes incubation, cells were centrifuged for 5 minutes at 2000 rpm in a refrigerated centrifuge. Blocking buffer was aspirated, and the cells were resuspended in 100 µl/well diluted antibodies and incubated for 1 hour at 4° C. The cells were then washed 3 times with PBS plus 2% FBS. […] The cells were then washed 3 times with 200 µl PBS by centrifuging at 2000 rpm for 5 min. After the last wash, the cells were resuspended in 300 µl cold PBS and analyzed on a FACSVerse™ (BD Biosciences) flow cytometer.

Test [3] addresses T1, Human ICAM1 ECD-Avi. Nature of the test: ELISA, plate coated with recombinant ICAM1.
Description: (§3) A 96-well plate was coated overnight at 4° C. with 1 µg/ml recombinant CD38 or ICAM1. After washing 3 times, the plate was blocked with 300 µl 1% BSA in PBST at 37° C. for 1 hour. Serially diluted antibodies were added and incubated at 37° C. for 1 hour. The plate was then washed 4 times with PBST and incubated with 1:5000 diluted 2nd antibody (Sigma, Cat# A0293) at 37° C. for 1 hour.
The target in test [4] is T2, ICAM1 on the surface of tumor cells. Nature of the test: flow cytometry on DU145 cells.
Description: as §2
(§4) Binding of the chimeric anti-CD38 and anti-ICAM1 antibodies to proteins on the surface of tumor cells was determined by flow cytometry, as described above.
The target in test [5] is T3, Avi-human CD38 ECD (human, UniProt P28907 43-300).
T3 construct: eluted as a monomer; also called hCD38; huCD38
Nature of the test: ELISA, plate coated with recombinant CD38.
Description: as §3

Test [6] concerns the target T4, CD38 on the surface of tumor cells (human, UniProt P28907 1-300).
T4 construct: whole, on cells; also called CD38 on Daudi cells; cell surface CD38
Nature of the test: flow cytometry on Daudi cells.
Description: as §2, §4

Test [7] has as its target T4, CD38 on the surface of tumor cells. Briefly: cell-based or functional assay.
Test [8] concerns the target T3, Avi-human CD38 ECD. Briefly: SPR (Biacore 8K), antibody captured, monomeric CD38 ECD injected.
Description: as §1

B1: anti-ICAM1 chimeric monoclonal antibody 8B12 (antibody, human IgG1, kappa, V domains shown)
VH: QSVEESGGGLVKPGGTLTLTCTVSGFSLSTHAMGWVRQAPGKGLEYIGIIGSSDRTYYASWAKGRFTISKTSTTVDLKITSPTTEDTATYFCVRDPYDSFDDGYRLWGPGTLVTVSS
VL: AYDMTQTPASVEVAVGGTVTIKCQASQSIYSYLSWYQQKPGQRPKFLIYDASKVASGVPSRFKGSGSGTEFTLTISAVQSDDAATYYCQQAYSSSNVDNAFGGGTEVMVKR
notes: Rabbit variable domains on human IgG1 / human kappa constant regions; also called chimeric 8B12
Molecule B1 registered a Kd in test [1] of 0.1 to 0.5 nM. Further, the EC50 in test [2] is 0.04 to 0.08 nM; in test [3], approximately 0.05 nM; in test [4] it was 1 to 1.5 nM.

B2: anti-CD38 chimeric monoclonal antibody 18E4 (antibody, human IgG1, kappa, V domains shown)
VH: QSLEESGGDLVKPGASLTLTCTASGFSFNNYWICWIRQAPGKGLEWVACIYSPSGDIKYYANWAKGRFTVSKTSSTTVTLQMTSLTGADTATYFCARELSGSSYEGYFESWGPGTLVTVSS
VL: AQVLTQTPSSVSAAVGGTVTINCQCSQSVYGHNWLAWYQHKPGQPPKLLMYRASNLASGVPSRFKGSGSGSQFTLTIGEVQSDDAATYYCQGYYNGGSYAFGGGTEVVVRR
notes: Rabbit variable domains on human IgG1 / human kappa constant regions; also called chimeric 18E4; Chimeric antibody 18E4
Take B2: the EC50 is approximately 0.05 nM in test [5] and 0.3 to 1 nM in test [6]. For the same molecule, the “CDC on Daudi cells, EC50” value in test [7] lay within 1 to 2 nM. This molecule had a Kd in test [8] of 0.1 to 0.5 nM.
